Experimental data reported in US20070128192A1 (AstraZeneca / MedImmune, published 2007).
Like-named read-outs stand apart in the source and are kept apart here.

Legend:
human IL-13 [1] = molecular target: T1, human IL-13 (human, UniProt P35225 15-146); assay: cell-based or functional assay
[2] = molecular target: T2, wild type human IL-13, baculovirus expressed, carboxyl terminus affinity tag (human, UniProt P35225 33-146); assay: cell-based or functional assay
[3] = molecular target: T3, non-human primate IL-13 (rhesus and cynomolgus, identical), baculovirus expressed, carboxyl terminus affinity … (rhesus and cynomolgus monkey, UniProt Q5I6E4 21-132 (Macaca thibetana entry)); assay: cell-based or functional assay
T3 chain: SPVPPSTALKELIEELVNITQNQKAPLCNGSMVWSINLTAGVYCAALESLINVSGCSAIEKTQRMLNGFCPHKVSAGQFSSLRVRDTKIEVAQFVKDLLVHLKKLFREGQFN

[4] = molecular target: T3, non-human primate IL-13 (rhesus and …); assay: cell-based or functional assay
[5] = molecular target: human IL-13 variant (Q130R), baculovirus expressed, carboxyl terminus affinity tag (human, UniProt P35225 33-146); assay: cell-based or functional assay
[6] = molecular target: native (naturally occurring) human IL-13 released from HDLM-2 cells (human, UniProt P35225 15-146); assay: cell-based or functional assay
[7] = molecular target: T2, wild type human IL-13, baculovirus …; assay: cell-based or functional assay; remark: listed apart in the source
human IL-13 [8] = molecular target: T1, human IL-13; assay: BIAcore, IgG coupled to CM5 chip, IL-13 50 nM to 0.78 nM passed over
human IL-13 [9] = molecular target: T1, human IL-13; assay: cell-based or functional assay; remark: listed apart in the source
murine IL-13 [10] = molecular target: T4, murine IL-13 (mouse, UniProt P20109 21-131, limits assumed); assay: cell-based or functional assay
T4 sequence (looked up): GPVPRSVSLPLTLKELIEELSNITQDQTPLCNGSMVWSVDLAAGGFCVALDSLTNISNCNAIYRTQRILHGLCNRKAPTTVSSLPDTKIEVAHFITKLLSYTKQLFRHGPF

murine IL-13 [11] = molecular target: T4, murine IL-13; assay: BIAcore, IgG4 coupled to CM5 chip, murine IL-13 passed over

T1 sequence (P35225 other isoform, or with tags, fused parts or gaps): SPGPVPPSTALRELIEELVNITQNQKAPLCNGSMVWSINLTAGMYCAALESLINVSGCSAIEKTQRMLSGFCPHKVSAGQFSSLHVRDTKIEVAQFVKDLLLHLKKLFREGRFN
native (naturally occurring) human IL-13 released from HDLM-2 cells, sequence (P35225 other isoform, or with tags, fused parts or gaps): as above
T2 sequence (P35225 other isoform, or with tags, fused parts or gaps): as above
human IL-13 variant (Q130R), baculovirus expressed, carboxyl terminus affinity tag, sequence (P35225 33-146 limits assumed, stated change not applied, form in doubt): as the sequence (P35225 other isoform, or with tags, fused parts or gaps) above, with R112Q counted along it

B1: BAK278D6 scFv (scFv, V domains shown)
VH: EVQLVQSGAEVKKPGASVKVSCKASGYTFRNYGLSWVRQAPGQGLEWMGWISANNGDTNYGQEFQGRITMTTETSTNTAHMELRSLRSDDTAVYYCVRDSSSNWARWFFDLWGKGTMVTVSS
VL: SYVLTQPPSVSVAPGQTARIPCGGNNIGSKLVHWYQQKPGQAPVLVVYDDGDRPSGIPERFSGSNSGNTATLTISRIDAGDEADYYCQVWDTGSDPVVFGGGTKLTVL
IC50, TF-1 cell proliferation assay (human IL-13 [1]): 44 nM | IC50 (read off the curve); TF-1 cell proliferation, 25 ng/ml human IL-13 [2]: ~70 nM | IC50 (read off the curve); TF-1 cell proliferation, 50 ng/ml non-human primate IL-13 [3]: ~90 nM

B2: BAK502G9 IgG4 (antibody, V domains shown)
VH: QVQLVQSGAEVKKPGASVKVSCKASGYTFTNYGLSWVRQAPGQGLEWMGWISANNGDTNYGQEFQGRVTMTTDTSTSTAYMELRSLRSDDTAVYYCARDSSSSWARWFFDLWGRGTLVTVSS
VL: SYVLTQPPSVSVAPGKTARITCGGNIIGSKLVHWYQQKPGQAPVLVIYDDGDRPSGIPERFSGSNSGNTATLTISRVEAGDEADYYCQVWDTGSDPVVFGGGTKLTVL
IC50, TF-1 cell proliferation assay [4]: 2 nM | IC50, TF-1 cell proliferation assay [5]: 1.9 nM | IC50, HDLM-2 cell proliferation assay [6]: 4.6 nM

B3: BAK1167F2 IgG4 (antibody, V domains shown)
VH: QVQLVQSGAEVKKPGASVKVSCKASGYTFEQTGVSWVRQAPGQGLEWMGWISANNGDTNYGQEFQGRVTMTTDTSTSTAYMELRSLRSDDTAVYYCARDSSSSWARWFFDLWGRGTLVTVSS
VL: SYVLTQPPSVSVAPGKTARITCGGNIIGSKLVHWYQQKPGQAPVLVIYDDGDRPSGIPERFSGSNSGNTATLTISRVEAGDEADYYCQVWDTGSDPVVFGGGTKLTVL
IC50, TF-1 cell proliferation assay [5]: 1.1 nM | IC50, HDLM-2 cell proliferation assay [6]: 1.1 nM | IC50, TF-1 cell proliferation assay [7]: 1 nM

B4: BAK278D6 IgG (antibody, V domains shown)
VH: EVQLVQSGAEVKKPGASVKVSCKASGYTFRNYGLSWVRQAPGQGLEWMGWISANNGDTNYGQEFQGRITMTTETSTNTAHMELRSLRSDDTAVYYCVRDSSSNWARWFFDLWGKGTMVTVSS
VL: SYVLTQPPSVSVAPGQTARIPCGGNNIGSKLVHWYQQKPGQAPVLVVYDDGDRPSGIPERFSGSNSGNTATLTISRIDAGDEADYYCQVWDTGSDPVVFGGGTKLTVL
Kd (human IL-13 [8]): 13.5 nM | koff (human IL-13 [8]): 0.00741 s⁻¹ | kon (human IL-13 [8]): 549000 M⁻¹ s⁻¹

B5: BAK1183H4 IgG4 (antibody, V domains shown)
VH: QVQLVQSGAEVKKPGASVKVSCKASGYTFTNYGLSWVRQAPGQGLEWMGWINYDGGNTQYGQEFQGRVTMTTDTSTSTAYMELRSLRSDDTAVYYCARDSSSSWARWFFDLWGRGTLVTVSS
VL: SYVLTQPPSVSVAPGKTARITCGGNIIGSKLVHWYQQKPGQAPVLVIYDDGDRPSGIPERFSGSNSGNTATLTISRVEAGDEADYYCQVWDTGSDPVVFGGGTKLTVL
IC50, TF-1 cell proliferation assay [5]: 1 nM | IC50, HDLM-2 cell proliferation assay [6]: 3.5 nM | IC50, TF-1 cell proliferation assay [7]: 0.9 nM

B6: BAK615E3 scFv (scFv, V domains shown)
VH: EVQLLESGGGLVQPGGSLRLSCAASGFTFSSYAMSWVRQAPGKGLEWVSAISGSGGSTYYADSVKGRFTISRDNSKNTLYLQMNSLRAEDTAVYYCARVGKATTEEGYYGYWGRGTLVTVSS
VL: NFMLTQPHSVSESPGKTVTISCTRSSGSIASNYVQWYQQRPGSAPTTVIYDDNQRPSGVPDRFSGSIDSSSNSASLTISGLKTEDEADYYCQSYDSNNDVFGGGTKVTVL
IC50, TF-1 cell proliferation assay (human IL-13 [9]): 3 nM

B7: BAK209B11 scFv (scFv, V domains shown)
VH: VQLQESGGGGLVQPGGSLRLSCAASGFTFSSYGMSWVRQAPGKGLEWVSSISASGDSTFYADSVKGRFTISRDNNKNMVFLQVNSLRADDTAVYFCAKDWSQWLVGDAFDVWGRGTTVTVSS
VL: DIQLTQSPSTLSASVGDRVTITCRASQSVSLWVAWYQQRPGKAPKLLIYDGSTLQSGVPARFSGSGSGTEFTLTISSLQPDDFATYYCQQYKTFSTFGQGTKVEIK
IC50, TF-1 cell proliferation assay (murine IL-13 [10]): 185 nM

B8: BAK209B11 human IgG4 (antibody, V domains shown)
VH: VQLQESGGGGLVQPGGSLRLSCAASGFTFSSYGMSWVRQAPGKGLEWVSSISASGDSTFYADSVKGRFTISRDNNKNMVFLQVNSLRADDTAVYFCAKDWSQWLVGDAFDVWGRGTTVTVSS
VL: DIQLTQSPSTLSASVGDRVTITCRASQSVSLWVAWYQQRPGKAPKLLIYDGSTLQSGVPARFSGSGSGTEFTLTISSLQPDDFATYYCQQYKTFSTFGQGTKVEIKR
Kd (murine IL-13 [11]): 5.1 nM | koff (murine IL-13 [11]): 0.0198 s⁻¹ | kon (murine IL-13 [11]): 3.9e+06 M⁻¹ s⁻¹ | IC50, B9 cell proliferation assay (murine IL-13 [10]): 0.776 nM
